The results in this text go back to US20100226985A1, “VISCOELASTIC AQUEOUS GELS COMPRISING MICROSPHERES” (priority 2006, published 2010).

The data set in a line: Lysozyme release from viscoelastic gels into release buffer (BCA protein assay). The class given is physicochemical. Particulars: after approximately one month; gel solid content 15 wt.-%, DS 4 and 8, lysozyme 1 wt.-% in buffer; release buffer Hepes pH 7. The method, then: Viscoelastic gel compositions with a solid content of 15 wt.-% comprising lysozyme as a model active compound were prepared by dispersing equal amounts of dex-HEMA-L-lactate and dex-HEMA-D-lactate microspheres (DS 4 and 8) in lysozyme-containing (1 wt.-%) aqueus buffer solution. The microparticles were allowed to hydrate overnight at 4° C. Viscoelastic gels were formed which were then tested for lysozyme release using the method described by Van Tomme et al. JCR 2005; 110:67-78. In short, samples of 500 mg of the gels were transferred in a release device and 3 mL release buffer (Hepes, pH 7, 100 mM, 150 mM NaCl, 0.02% NaN3). At certain time intervals, samples were taken and analysed for their protein content using a BCA® protein assay. After approximately one month, about 80% of the entrapped lysozyme was released. No significant difference could be detected between the two batches (i.e. with DS 4 and DS 8) were observed.

As to lysozyme, the entrapped lysozyme released entry is listed as “about 80%”.
